Molecular target: T1, SarA (staphylococcal accessory regulator A), strain DB (Staphylococcus aureus) (UniProt Q2G2U9)
T1 sequence: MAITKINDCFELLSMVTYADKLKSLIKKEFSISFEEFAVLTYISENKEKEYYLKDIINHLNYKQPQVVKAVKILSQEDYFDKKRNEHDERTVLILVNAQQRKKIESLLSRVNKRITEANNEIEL
Test: EMSA
Settings: same buffer; 1 dimer per DNA; dG dissociation 12.1 kcal/mol

Sequence: AC oligo (45 bp, footprint region of Chien and Cheung)
- Kd: 1 nM
